From the nanobody polyreactivity screen of Harvey et al. (2022) come the findings set out here.

A short description of the series: yeast display, Sf9 membrane polyspecificity reagent, FACS + sequencing; frameworks hold sequencing errors. The gist of the method: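 In a synthetic yeast display library (Saccharomyces cerevisiae BJ5465), nanobody expression was induced with galactose for 36–48 hours. FACS gates were set low and high (top ~1%) using anti-HA fluorescence for expression and streptavidin fluorescence for binding of the Sf9 membrane reagent. Each polyreactivity label is drawn from the gate of origin.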
As for “QVQLVESGGGLVQAGGSLRLSCAASGYIYNGYAMGWYRQAPGKERELVAAIDWSGGSTYYADSVKGRFTISRDNAKNTVYLQMNSLKPEDTAVYYCNASEWLSASYYWGQGTQVTVSS”, the “polyreactivity (PSR sort gate)” value was “high polyreactivity”. The result for “QVQLVESGGGLVKAGGSLRLSCAAYGITFIRYAMGWYRQAPGKERELVAVMTRSGGRTYYADSVKGRFTISRDNAKNTVYLQMNSLKPEDTAVYYCAARAYGYDEYEYWGQGTQVTVSS” reads “high polyreactivity”. Next, “QVQLVESGGGIVQAGGSLRISCAASGIIFQYYVMGWYRQAPGKESELVAAIEKSGGSTYYADSLKGRFTISRDYAKNTVYLQMNSLNPDDTAVYYCAATSYAHKYYGYFGAIKYEYWGQGTQVTVSS”: “low polyreactivity”; “QDQLVESVGGLVQAGGSLRLSCAASGSIFVRYAMGWYRQAPGKERELVAAISSDGNTYYADSVKGRFTISRDNAKNTVYLQMNSLKPEDTAVYYCAAKTRSRYYWGQGTQVTVSS”: “high polyreactivity”. The result for “QVQLVESGGGLVQAGGSLRLSCAASGRTCYSYAMGWYRQAPGKVRALVAAITSSGSTNADSVKGRFTISRDNAKNTDYLQMNSLKPEDTAVYYCATRSYILGWRYDYWGQGTQVTVSS” reads “high polyreactivity”; that for “QVQLVESGGGLVQAGGSLRLSCAASGSIFVYYAMGWYRQAPGKERELVASISRGGTSTYYADSVKGRFTISRDNAKNTVYLQMNSLKPEDTAVYYCAAQPYRTGTYDYWGQGTQVTVSS”, “low polyreactivity”. For “QVQLVESGGGLVQAGGSLRLSCAASGIIFVTYAMGWNRQAPGKEREFVAGINWNGGSTYYADSVKGRFTISRDNAKNTVYLQMNSLKPEDTAVYYCNAENYRVRQRSSVKYDYWGQVTQVTVSS”, the “polyreactivity (PSR sort gate)” value was “low polyreactivity”.

In the case of “QVQLVESGGGLVQAGGSLLLNCAASGITFAGNAMGWYRQAPGKERELLAAISGSGGSTSYADSVKGRFTISRDDAKNTVYLQMNSLKPEDTAVYYGSAASRLYHWHALFGSWGQGTQVTVSS”, the “polyreactivity (PSR sort gate)” value is on record as “low polyreactivity”. The result for “QVQLVESGGGLVQAGGSLRLSCAASGSIFGDNAMGWYRQAPGKERELVARISSGGNTYYADSVKGRFTISRDNAKNTVYLQMNSLKPEDTAVYYCAAAIKVSYKKFPYYYWGQGTQVTVSS” reads “high polyreactivity”. The result for “QVQLVESGGGLVQAGGSLRLSCAASGRTFSKNTMGWYRKAPGKERELVASITRRGGSTYYADSVKGRFTISRDNAKNTVYLQMKSLKPEDTAVYYCAVRWRDYRGSYRGFEYWGQGTQVTVSS” reads “high polyreactivity”; that for “QVQLVESGGGLVQAGGSLRLSCAASGSIFRIYAMGWYRQAPGKERELVAAISRGSTRTYYADSVKGRFTISRDNAKNTVYLQMNSLKPEDTAVYYCNKAYPPEYDYWGQGTQVTVSS”, “high polyreactivity”. The result for “QVQLVESGGGLVQAGGSLRLSCAASGSTFNRYGMGWYIQAPGKERELVAAISGSNGGTYYADSVKGRFTISRDNAKNTVYLQMNSLKPEDTAVYFCAKVRAYTRLGLTVSMDYWGQGTKVTVSS” reads “high polyreactivity”.

Turning to “QVQLVESGGGLVQAGGSLRLSCAASGRTFWRNAMGWYRQAPGKERELVAAINSGGRTYYADSVKGRFTISRDNAKNTVYLQMNSLKPEDTAVYYCAAVYSQSTKRYELYYWGQGTQVTVSS”, the “polyreactivity (PSR sort gate)” value is “high polyreactivity”.

In the case of “QVQLVESVGGLVQAGGSLRLSCGSSGSIFPYNAMGWYRQAPGKERELVATISSGGSTNYADSVKGRFTISRDNAKNTFYLQMNSLKPEDTAFYYCAADVIVFYYAPNYCGDIEYGYWGQGTQVTVSS”, the “polyreactivity (PSR sort gate)” value was “low polyreactivity”. Take “QVQLVESGGGLVQAGGSLRLSCAASGRIFQRYAMGWYRQAPGKERELVAAISSRGGRTFYADSVKGRFTISRDNAKNTVYLQMNSLKPEDTAAYYCAATATVGSVTFDYWGQGTQVTVSS”: the “polyreactivity (PSR sort gate)” value was “high polyreactivity”. For the sequence “QVQLVESGGGLVQAGGSLRLSCAASGSTFAQNAMGWYRQAPGKERELVAAISRRGGSTYYADSVKGRFTISRDNAKNTVYLQMNSLKPEDTAVYYCAADQPVRQHHRDDYWGQGTQVTVSS”, the “polyreactivity (PSR sort gate)” value is listed as “low polyreactivity”. For “QVQLVESGGGLVQAGGSLRLSCAASGRIFVNNAMGWYRQAPGKEREFDATITSSGGRTYYADSVKGRFTISRDNAKYTVYLQMNSLKPEDTAVYYCAARPQNNGRNPVYRYNYWGQGTQVTVSS”, the “polyreactivity (PSR sort gate)” value is “high polyreactivity”. Next, “QVQLVESGGGLVQAGGSLRLSCAASGRIFRYNAMGWYRQAPGKERELVAAISGTGDRTYYADSVKGRFTISRDNAKNTVYLQMNSLKPEDTAVYYCAARGLFFRNRYGYWGQGTQVTVSS”: “high polyreactivity”; “QVQLVESGGGLVQAGGSLRLSCAASGRTLTKYVMGWYRQAPGKEREFVAAISSSGDSTYYADSVKGRFTISRDNAKNPVYLQMNSLKQEDTAVYYCAKYDRNTYCYWGQCTQVTVSS”: “low polyreactivity”.

“QVQLVESGGGLVQAGGSLRLSCAASGSTFYGYALGWYRQAPGKERELVAGITSAGSTYYADSVKGRFTISRDNAKNTVYLQMNSLKPEDTAVYYCAAVYRRWIWRERYYYCGQGTQVTVSS”: the “polyreactivity (PSR sort gate)” value was “high polyreactivity”.

Take “QVQLVESGGGLVQAGGSLRLSCAASGSTFVYYAMGWYRQAPGKERELVAAISWSGTRTYYADSVKGRFTISRDNAKNTVYLQMNSLKPEDTAVYYCATRKQSRSVGYNYWGQGTQVTVSS”: the “polyreactivity (PSR sort gate)” value was “high polyreactivity”.

In the case of “QVQLVESGGGLVQAGGSLRLSCAASGFFLGQYTMGWYRQAPGKERELVAAISSSGSTNYADSVKGRFTISRDNAKNTVYLQMNSLKPEDTAVYYCSIAGIRHVTSKFKGYHFGYWGQGTQVTVSS”, the “polyreactivity (PSR sort gate)” value is “low polyreactivity”. Turning to “QVQLVESGGGLFQAGGSLRLSCAASGRTFNFNVMGWYRQAPGKERELVAAMSKSTGSTFYADSVKGRFTISRDNAKNTVYLQMNSLKPEDTAGYYCAAKPSRSLYYYWGQGTQVTVSS”, the “polyreactivity (PSR sort gate)” value is “high polyreactivity”. The result for “QVQLVESGGGLVQAGGSLRLSCAASGFTFSAYTMGWYRQAPGKERELVAAINWSGANTYYADSVKGRFTISRDNAKNTVYLQMNSLKPEDTAVYYCNAEDDYTYDRSFGGYKYDYWGQGTQVTVSS” reads “low polyreactivity”; that for “QVQLVESGGCLDQAGGSLRLSCAASGSIFYYYTMGWSRQAPGKEREFVATITYSGGSTYYADSVKGRITISRDNAKYTVYLQMNSLKPEDTAVYYCNARPRYYDWVDYWGQGTQVTVSS”, “low polyreactivity”.

With “QVQLVESGGGLVQAGGSLRLSCAASGYTFSAYAMGCYRQAPGKERELVASITRRRTNYAESVKGRFTISRDNAKNTVYLQMNSLKPEDTAVYYCAATNYVRQYATYDYWGQGTQVTVSS”, the “polyreactivity (PSR sort gate)” value is “high polyreactivity”. Next, “QVQLVESGGGLVQAGGSLRLSCAASGVILSAYAMGLYRQAPAKERELVAAITGSGGRTYYADSVKGRFTISRDNAKNTVYFQMNSLKPEDTAVNYCAARYTYVGSYTYNSWGQGPQVTVSS”: “high polyreactivity”. Turning to “QVQLEETGGGLVQAGGSLRLSCSASGRTLYYYAMGWYRQAHGKDRELVAAISKRGGSTYYADSVQGRFTISRDNAKNTVYLQINSLKPVDTAVFYCAASSGLDSWGQGTQVTVSS”, the “polyreactivity (PSR sort gate)” value was “high polyreactivity”. With “QVQLVESGGGVVQAGGSLRLSCAASGITIEANAMGLYRQAPGKERELVAAIDRSGGSKYYADSVKGRFTISRDNAKNTVYLQMNSLKPEDTAVYYCAADGRASVGGLGDDYWGQGTQVTVSS”, the “polyreactivity (PSR sort gate)” value is recorded as “low polyreactivity”. The result for “QVQLVESGGGLVQAGGSLRLSCAASGRIFYHYAMGWYRQAPGTERELVAAINSSGGSTHYADSVKGRFTISRDNAKNTVYLQMNSLKPVDTAVYYCAADGYWRDYSGYWDYYYIYDYWGQGTQVTVSS” reads “low polyreactivity”. Next, “QVQLVESGGGLVQAGGSLRLSCAASGLIFYGNAMGWYRQAPGKERELVAAISWSGGNTSYADSVKGRFTISRDNAKNTVYLQMNSLKPEDTAVYYCAVDNTGRSWPYDYWGQGTQVTVSS”: “low polyreactivity”; “QVQLVESGGGLVQAGGSLSLICAASGSTFRYYTMGWYRQAPGKERELVAVISRSDDSTYADSVKGRFTISRDNAKNTVYLQMNSLKPVDTAVYYCAAAGGLFFRSTVPRGDFWGQGTQVTVSS”: “low polyreactivity”.

Take “QVQLVESGGGLVQAGGSLRLSCAASGSIFGVYTMGWYRQAPGKERELVAAIRGVGSTNYADSVKGRFTISRDNAKNTVYLQMNSLKPEDTAVYYCASRYAYGMWGQGTQVTVSS”: the “polyreactivity (PSR sort gate)” value is recorded as “low polyreactivity”. For “QVQLVESGGGLVQAGGSLRLSCAASGSTFTYYAMGWYRQAPGKERELVAAITSRGGITYYADSVKGRFTISRDNAKNTVYLQMNSLKPEDTAVYYCNAYSQRYGYYYWGQGTQVTVSS”, the “polyreactivity (PSR sort gate)” value was “high polyreactivity”. For the sequence “QVQLVESAGGLVQAGGSLRLSCAASGSIFVRNAMGWYRQAPGKERELVARISSRGGSTYYADSVKGRFTISRDNAKNTVYLQMISLKPEDTAVYYSNRDRTWQTNDYWGQGTQVTVSS”, the “polyreactivity (PSR sort gate)” value is “high polyreactivity”. For the sequence “QVQLVESGGGLVQAGGSLRLSCATSGSIFPTYAMGSYRQAPGKERELVAAISAIVGGTYYADSVKGRFTISRDNAKNTVYLQMNSLKPEDTAVYYCNKTKFQGYDYWGQGTQVTVSS”, the “polyreactivity (PSR sort gate)” value is on record as “low polyreactivity”. With “QVQLVESGGGLVQAGGSLRLICAASGNIFAVYAMGWYRQAPGKERELVAAITTGTNTYADSVKGRFTISRDNAKNNVYLQMNSLKPEDTAVYFCAARYYRPLDYWGQGTQVTVSS”, the “polyreactivity (PSR sort gate)” value is reported as “low polyreactivity”. Next, “QVQLVESGGGLVQAGGSLRLSCAASGIIFSYNFMGWYRQAPGKERELVAGISRSGGSTYYADSVKGRFTISRDNAKNTVYLQMNSLKPEDTAVYYCNTVERGQNRRPGDKARRYDWGQGTQVTVSS”: “high polyreactivity”; “QVQLVESGGGLVQAGGSLRLSCAASGSTLGRNVMGWYRQAPGKERELVAAISSRGSRTYYADSVKGRFTISRDNAKNTVYLQMNSLKPEDTAVYYCNRGWAHSNAKFDYWGQGTQVTVSS”: “high polyreactivity”.

In the case of “QVQLVESGGGLVQAGGSLRLSCAASGRTFWRYAMGWYRQAPGKEREVVAAISRRGDSTYYADSVKGRFTISRDYAKNTVYLQMNSLKPEDTAVYYCNKGYAYSHDDPYWYSPRYDYWGQGTQVTVSS”, the “polyreactivity (PSR sort gate)” value was “low polyreactivity”.

Consider “QVQLVESGGGLVQAGGSLRLSCAASGFTFPYYTMGWYRQAPGKERELVATISYSGGRTYYADSVKGRFTISRDNAKNTVYLQMNSLKPEDTAVYYCNKVVRLQSRYDYWGQGTQVTVSS”, for which the “polyreactivity (PSR sort gate)” value was “high polyreactivity”.
